These are literature values, as cited in publication PMC9371363.

Some results are limits rather than exact numbers.

One series deals with IL-13Rα2 (Homo sapiens) (UniProt Q14627).
In a further series the target is IL-4Rα (Homo sapiens) (UniProt P24394).
Chain of UniProt P24394 (P24394 26-232): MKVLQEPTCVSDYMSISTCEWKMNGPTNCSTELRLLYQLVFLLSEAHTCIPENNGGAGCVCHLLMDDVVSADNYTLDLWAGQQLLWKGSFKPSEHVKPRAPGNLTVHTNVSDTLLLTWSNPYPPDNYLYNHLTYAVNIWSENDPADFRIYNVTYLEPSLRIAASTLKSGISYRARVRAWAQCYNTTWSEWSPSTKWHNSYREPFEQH

Chain of UniProt Q14627 (Q14627 27-343): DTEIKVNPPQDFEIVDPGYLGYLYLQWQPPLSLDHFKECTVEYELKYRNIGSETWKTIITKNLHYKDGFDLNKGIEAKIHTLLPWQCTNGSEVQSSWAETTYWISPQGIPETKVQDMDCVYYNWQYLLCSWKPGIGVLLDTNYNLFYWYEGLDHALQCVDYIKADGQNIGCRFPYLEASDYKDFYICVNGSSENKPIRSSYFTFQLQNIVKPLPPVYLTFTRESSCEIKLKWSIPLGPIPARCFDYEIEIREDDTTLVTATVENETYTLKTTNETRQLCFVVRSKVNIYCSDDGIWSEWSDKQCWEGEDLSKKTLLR

The Kd is the concentration at which binding is half-saturated. With IL-13 (from UniProt P35225), the Kd with IL-13Rα2 (Homo sapiens) was less than 0.001 pM.

Take IL-4 (from UniProt P05112): the dissociation constant (Kd) with IL-4Rα (Homo sapiens) was 100 pM.
